For this experiment, the target named is caspase-8 (P10 and P18 subunits reconstituted in their active form). Description: flow cytometry of giant unilamellar vesicles; CL-containing GUVs in PBS; caspase-8 290 nM bound to the vesicles, fluorescent Bid added at 10 to 100 nM; vesicle fluorescence recorded online. (In general: A flow cytometer gives signals particle by particle.)

B1: full-length Bid (C15S, C28S), fluorescently labelled (natural protein)
chain: MDCEVNNGSSLRDESITNLLVFGFLQSSSDNSFRRELDALGHELPVLAPQWEGYDELQTDGNRSSHSRLGRIEADSESQEDIIRNIARHLAQVGDSMDRSIPPGLVNGLALQLRNTSRSEEDRNRDLATALEQLLQAYPRDMEKEKTMLVLALLLAKKVASHTPSLLRDVFHTTVNFINQNLRTYVRSLARNGMD
modifications: Bodipy488 or Alexa647 maleimide labelling (legends and results also say Alexa488)
Regarding B1, the mean fluorescence of GUVs + caspase-8 + Bid (0 min) turned out to be 84 a.u.

For the origin of these results see paper PMC3572128.
